The supplement of paper PMC9112550, “Optimization of the antimicrobial peptide Bac7 by deep mutational scanning” (BMC Biology, 2022)

Tested on: Escherichia coli TOP10
Assay: shrunken log2 fold change of peptide-encoding DNA abundance (4.5 h post-induction vs induction); higher = less antimicrobial activity (less host growth inhibition)
Conditions: time post-induction: 4.5 h; library: site-saturation at positions 5, 18, 19, 20
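Further: peptides expressed intracellularly from a pBAD plasmid library in pooled LB shake-flask culture, induced with 0.3% L-arabinose, DNA abundance read by NGS, three biological replicates, DESeq2 with apeglm shrinkage.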

| Sequence | shrunken log2 fold change |
| --- | --- |
| RRIRMRPPRLPRPRPRPQVTPRP | -0.116 |
| RRIRMRPPRLPRPRPRPQYFPRP | 0.00454 |
| RRIRMRPPRLPRPRPRPQYKPRP | -0.0699 |
| RRIRMRPPRLPRPRPRPQYSPRP | 0.0353 |
| RRIRMRPPRLPRPRPRPRAKPRP | 1.25 |
| RRIRMRPPRLPRPRPRPRAPPRP | 1.18 |
| RRIRMRPPRLPRPRPRPRCNPRP | 0.105 |
| RRIRMRPPRLPRPRPRPRCTPRP | 0.6 |
| RRIRMRPPRLPRPRPRPRFYPRP | 0.322 |
| RRIRMRPPRLPRPRPRPRGDPRP | 1.73 |
| RRIRMRPPRLPRPRPRPRGYPRP | 0.0597 |
| RRIRMRPPRLPRPRPRPRHAPRP | 0.698 |
| RRIRMRPPRLPRPRPRPRHGPRP | 0.83 |
| RRIRMRPPRLPRPRPRPRHYPRP | -0.0487 |
| RRIRMRPPRLPRPRPRPRIQPRP | 0.203 |
| RRIRMRPPRLPRPRPRPRLHPRP | 0.721 |
| RRIRMRPPRLPRPRPRPRLMPRP | -0.0423 |
| RRIRMRPPRLPRPRPRPRMEPRP | 0.0362 |
| RRIRMRPPRLPRPRPRPRMIPRP | -0.0577 |
| RRIRMRPPRLPRPRPRPRNGPRP | 0.833 |
| RRIRMRPPRLPRPRPRPRNKPRP | 0.667 |
| RRIRMRPPRLPRPRPRPRNLPRP | 0.0196 |
| RRIRMRPPRLPRPRPRPRPEPRP | 1.35 |
| RRIRMRPPRLPRPRPRPRPMPRP | 0.935 |
| RRIRMRPPRLPRPRPRPRRWPRP | 0.881 |

| Sequence | shrunken log2 fold change |
| --- | --- |
| RRIRMRPPRLPRPRPRPRTYPRP | -0.00485 |
| RRIRMRPPRLPRPRPRPRYGPRP | 0.0305 |
| RRIRMRPPRLPRPRPRPSACPRP | 1.99 |
| RRIRMRPPRLPRPRPRPSAKPRP | 0.0449 |
| RRIRMRPPRLPRPRPRPSCNPRP | 0.197 |
| RRIRMRPPRLPRPRPRPSCQPRP | 0.166 |
| RRIRMRPPRLPRPRPRPSDNPRP | 0.0409 |
| RRIRMRPPRLPRPRPRPSDVPRP | 0.141 |
| RRIRMRPPRLPRPRPRPSFAPRP | 0.301 |
| RRIRMRPPRLPRPRPRPSFKPRP | -0.0765 |
| RRIRMRPPRLPRPRPRPSFMPRP | 0.0821 |
| RRIRMRPPRLPRPRPRPSGHPRP | 0.0431 |
| RRIRMRPPRLPRPRPRPSGPPRP | 0.205 |
| RRIRMRPPRLPRPRPRPSGQPRP | 0.602 |
| RRIRMRPPRLPRPRPRPSHFPRP | -0.274 |
| RRIRMRPPRLPRPRPRPSHQPRP | -0.0291 |
| RRIRMRPPRLPRPRPRPSKEPRP | 0.203 |
| RRIRMRPPRLPRPRPRPSKPPRP | 0.0519 |
| RRIRMRPPRLPRPRPRPSMKPRP | 0.0872 |
| RRIRMRPPRLPRPRPRPSNSPRP | -0.192 |
| RRIRMRPPRLPRPRPRPSPHPRP | 0.18 |
| RRIRMRPPRLPRPRPRPSQSPRP | 0.53 |
| RRIRMRPPRLPRPRPRPSRFPRP | 0.253 |
| RRIRMRPPRLPRPRPRPSRKPRP | 0.148 |
| RRIRMRPPRLPRPRPRPSSHPRP | 0.0506 |

| Sequence | shrunken log2 fold change |
| --- | --- |
| RRIRMRPPRLPRPRPRPSTVPRP | -0.0552 |
| RRIRMRPPRLPRPRPRPSTYPRP | -0.347 |
| RRIRMRPPRLPRPRPRPSWAPRP | 0.203 |
| RRIRMRPPRLPRPRPRPSWIPRP | 0.0389 |
| RRIRMRPPRLPRPRPRPTAMPRP | 1.14 |
| RRIRMRPPRLPRPRPRPTCLPRP | 0.413 |
| RRIRMRPPRLPRPRPRPTCVPRP | 0.424 |
| RRIRMRPPRLPRPRPRPTDQPRP | 1.46 |
| RRIRMRPPRLPRPRPRPTDRPRP | 0.894 |
| RRIRMRPPRLPRPRPRPTEHPRP | 0.443 |
| RRIRMRPPRLPRPRPRPTETPRP | 0.511 |
| RRIRMRPPRLPRPRPRPTFHPRP | -0.00995 |
| RRIRMRPPRLPRPRPRPTGMPRP | 0.136 |
| RRIRMRPPRLPRPRPRPTGSPRP | 1.34 |
| RRIRMRPPRLPRPRPRPTLGPRP | 0.685 |
| RRIRMRPPRLPRPRPRPTLQPRP | 0.13 |
| RRIRMRPPRLPRPRPRPTNMPRP | -0.0158 |
| RRIRMRPPRLPRPRPRPTNSPRP | -0.302 |
| RRIRMRPPRLPRPRPRPTPDPRP | 1.39 |
| RRIRMRPPRLPRPRPRPTQHPRP | 0.717 |
| RRIRMRPPRLPRPRPRPTRMPRP | 0.685 |
| RRIRMRPPRLPRPRPRPTSWPRP | 0.834 |
| RRIRMRPPRLPRPRPRPTWLPRP | 0.266 |
| RRIRMRPPRLPRPRPRPTWWPRP | 0.596 |
| RRIRMRPPRLPRPRPRPTYQPRP | -0.063 |

| Sequence | shrunken log2 fold change |
| --- | --- |
| RRIRMRPPRLPRPRPRPTYSPRP | 0.0196 |
| RRIRMRPPRLPRPRPRPVDCPRP | 0.029 |
| RRIRMRPPRLPRPRPRPVDMPRP | 0.185 |
| RRIRMRPPRLPRPRPRPVEFPRP | -0.0638 |
| RRIRMRPPRLPRPRPRPVGLPRP | 0.383 |
| RRIRMRPPRLPRPRPRPVGQPRP | -0.00911 |
| RRIRMRPPRLPRPRPRPVGWPRP | 1.37 |
| RRIRMRPPRLPRPRPRPVHFPRP | 0.602 |
| RRIRMRPPRLPRPRPRPVHRPRP | 0.872 |
| RRIRMRPPRLPRPRPRPVIGPRP | -0.0424 |
| RRIRMRPPRLPRPRPRPVIVPRP | -0.313 |
| RRIRMRPPRLPRPRPRPVKFPRP | 0.0501 |
| RRIRMRPPRLPRPRPRPVKSPRP | 0.023 |
| RRIRMRPPRLPRPRPRPVLDPRP | 0.331 |
| RRIRMRPPRLPRPRPRPVLEPRP | 0.426 |
| RRIRMRPPRLPRPRPRPVLGPRP | 0.741 |
| RRIRMRPPRLPRPRPRPVLNPRP | -0.232 |
| RRIRMRPPRLPRPRPRPVNVPRP | 0.0663 |
| RRIRMRPPRLPRPRPRPVNWPRP | 0.223 |
| RRIRMRPPRLPRPRPRPVQIPRP | 0.378 |
| RRIRMRPPRLPRPRPRPVQPPRP | 0.229 |
| RRIRMRPPRLPRPRPRPVRLPRP | 0.116 |
| RRIRMRPPRLPRPRPRPVTWPRP | 0.216 |
| RRIRMRPPRLPRPRPRPVVTPRP | 0.0538 |
| RRIRMRPPRLPRPRPRPVWEPRP | 0.4 |

| Sequence | shrunken log2 fold change |
| --- | --- |
| RRIRMRPPRLPRPRPRPVWNPRP | -0.0831 |
| RRIRMRPPRLPRPRPRPVWTPRP | 0.386 |
| RRIRMRPPRLPRPRPRPVYCPRP | 0.00982 |
| RRIRMRPPRLPRPRPRPVYTPRP | 0.194 |
| RRIRMRPPRLPRPRPRPVYWPRP | 0.0687 |
| RRIRMRPPRLPRPRPRPWCLPRP | -0.208 |
| RRIRMRPPRLPRPRPRPWDIPRP | 0.232 |
| RRIRMRPPRLPRPRPRPWDRPRP | 0.158 |
| RRIRMRPPRLPRPRPRPWFEPRP | -0.13 |
| RRIRMRPPRLPRPRPRPWGDPRP | 0.0652 |
| RRIRMRPPRLPRPRPRPWGGPRP | 0.414 |
| RRIRMRPPRLPRPRPRPWGSPRP | 0.0578 |
| RRIRMRPPRLPRPRPRPWIFPRP | 0.0735 |
| RRIRMRPPRLPRPRPRPWILPRP | -0.201 |
| RRIRMRPPRLPRPRPRPWKLPRP | -0.133 |
| RRIRMRPPRLPRPRPRPWLDPRP | 0.0568 |
| RRIRMRPPRLPRPRPRPWLLPRP | -0.0297 |
| RRIRMRPPRLPRPRPRPWNDPRP | -0.112 |
| RRIRMRPPRLPRPRPRPWNKPRP | -0.535 |
| RRIRMRPPRLPRPRPRPWRAPRP | 0.595 |
| RRIRMRPPRLPRPRPRPWRHPRP | 0.0256 |
| RRIRMRPPRLPRPRPRPWRIPRP | -0.0845 |
| RRIRMRPPRLPRPRPRPWRTPRP | 0.324 |
| RRIRMRPPRLPRPRPRPWSKPRP | 0.0409 |
| RRIRMRPPRLPRPRPRPWSNPRP | -0.254 |

| Sequence | shrunken log2 fold change |
| --- | --- |
| RRIRMRPPRLPRPRPRPWSPPRP | -0.508 |
| RRIRMRPPRLPRPRPRPWSTPRP | -0.144 |
| RRIRMRPPRLPRPRPRPWTSPRP | 0.0303 |
| RRIRMRPPRLPRPRPRPWVDPRP | -0.034 |
| RRIRMRPPRLPRPRPRPWVLPRP | 0.0155 |
| RRIRMRPPRLPRPRPRPWVYPRP | -0.0124 |
| RRIRMRPPRLPRPRPRPWWHPRP | 0.158 |
| RRIRMRPPRLPRPRPRPWWRPRP | 0.494 |
| RRIRMRPPRLPRPRPRPWWSPRP | 0.334 |
| RRIRMRPPRLPRPRPRPWYAPRP | -0.475 |
| RRIRMRPPRLPRPRPRPYCLPRP | 0.146 |
| RRIRMRPPRLPRPRPRPYCMPRP | -0.53 |
| RRIRMRPPRLPRPRPRPYCTPRP | -0.00702 |
| RRIRMRPPRLPRPRPRPYDNPRP | 0.213 |
| RRIRMRPPRLPRPRPRPYFDPRP | -1.09 |
| RRIRMRPPRLPRPRPRPYKRPRP | -0.0368 |
| RRIRMRPPRLPRPRPRPYKYPRP | -0.851 |
| RRIRMRPPRLPRPRPRPYLFPRP | -0.0192 |
| RRIRMRPPRLPRPRPRPYLWPRP | 0.0857 |
| RRIRMRPPRLPRPRPRPYMCPRP | 0.00451 |
| RRIRMRPPRLPRPRPRPYMDPRP | 0.000784 |
| RRIRMRPPRLPRPRPRPYMPPRP | -0.312 |
| RRIRMRPPRLPRPRPRPYNAPRP | -0.439 |
| RRIRMRPPRLPRPRPRPYNYPRP | -0.2 |
| RRIRMRPPRLPRPRPRPYPEPRP | -0.121 |
